This is an account of results in patent US20180362604A1.

One assay deals with Activin A (UniProt P08476). The assay can be described thus: cell-based or functional assay.
In assay [1] the target is Myostatin (UniProt O14793). As to the kind of experiment: cell-based or functional assay.
The target of assay [2] is Myostatin (UniProt O14793). As to the kind of experiment: SPR (BIAcore), anti-human Fc capture, myostatin as analyte.
In assay [3] the target is FcRn receptor. As to the kind of experiment: FcRn binding, 'standard methods'.
Chain of FcRn receptor (P55899 24-297, chain 1 of 2): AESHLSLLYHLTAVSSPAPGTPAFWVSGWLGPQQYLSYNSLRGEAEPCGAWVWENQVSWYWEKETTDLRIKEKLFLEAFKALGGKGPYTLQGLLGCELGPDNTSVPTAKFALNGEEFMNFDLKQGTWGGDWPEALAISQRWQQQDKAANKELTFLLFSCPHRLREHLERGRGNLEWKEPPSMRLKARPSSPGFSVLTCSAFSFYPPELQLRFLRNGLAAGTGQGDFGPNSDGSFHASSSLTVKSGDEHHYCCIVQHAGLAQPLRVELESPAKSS
Chain of FcRn receptor (P61769 21-119, chain 2 of 2, further chain): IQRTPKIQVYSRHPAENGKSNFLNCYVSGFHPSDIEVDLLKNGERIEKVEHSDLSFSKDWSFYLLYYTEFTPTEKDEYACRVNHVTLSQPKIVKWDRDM
The target of assay [4] is Myostatin (UniProt O14793). As to the kind of experiment: SPR.
The target in assay [5] is FcRn receptor. As to the kind of experiment: SPR.

Chain of Myostatin (O14793 267-375 limits assumed): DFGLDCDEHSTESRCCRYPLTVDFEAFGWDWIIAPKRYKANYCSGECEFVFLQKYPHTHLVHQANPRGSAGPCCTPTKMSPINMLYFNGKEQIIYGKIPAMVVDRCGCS
Chain of Activin A (P08476 311-426): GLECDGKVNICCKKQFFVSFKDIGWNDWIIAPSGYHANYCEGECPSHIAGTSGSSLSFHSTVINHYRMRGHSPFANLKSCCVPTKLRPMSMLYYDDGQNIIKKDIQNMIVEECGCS

Consider FS315R78E/K(82,84)E-hFcLALA (Fc fusion), for which the Activin A IC50, cell-based assay for SMAD pathway (A204 luciferase reporter) with Activin A turned out to be 0.6 nM. The Myostatin IC50, cell-based assay for SMAD pathway (A204 luciferase reporter) in the assay with Myostatin [1] came to 0.5 nM.
On to monoFS315ΔHBS-hFcLALA (Fc fusion), for which the dissociation constant Kd in the assay with Myostatin [2] worked out at 0.0033 nM; with FcRn receptor [3] it was 36.7 nM.
In the assay with Activin A, FS315K(81,82,84)E-hFcLALA (Fc fusion) registered an Activin A IC50, cell-based assay for SMAD pathway (A204 luciferase reporter) of 1 nM. Further, the Myostatin IC50, cell-based assay for SMAD pathway (A204 luciferase reporter) with Myostatin [1] is 0.4 nM.
In the case of FS315ΔHBS-hFcLALA (Fc fusion), the dissociation constant Kd with Myostatin [4] was 0.0174 nM; with FcRn receptor [5], 48 nM; with FcRn receptor [3], 372 nM. The same substance yielded a Myostatin IC50, cell-based assay for SMAD pathway (A204 luciferase reporter) in the assay with Myostatin [1] of 0.4 nM.
